In patent US20230399384A1:
Where two headings read alike, the source gives them in different places.

B1: CoV2-16 (antibody, V domains shown)
VH: QVQLHQWGAGLLKPSETLSRTCAVYGGSFSGYYWTWIRQAPGKGLEWIGEINHGGSTRYNPSLESRVSISVDTSKKQFSLELRSVTAADTAIYYCARGYDTNWYGDGYNWFDPWDRGTLVTVSS
VL: QAVVTQPPSVSGTPGQRVTISCSGSSSSIGSNTVHWYQHLPGTAPKLLMYNNNERPSGVPARFSGSKSGTSASLVITGLQADDEAEYYCQSYDTGLSGHVFGSGTELTVL
B2: CoV2-09 (antibody, V domains shown)
VH: QVQLHQWGAGLLKPSETLSRTCAVYGGSFSGYYWTWIRQAPGKGLEWIGEINHGGSTRYNPSLESRVSISVDTSKKQFSLELRSVTAADTAIYYCARGYDTNWYGDGYNWFDPWDRGTLVTVSS
VL: QSALTQDPSVSVALGQTVRITCQGDSLRGSFASWYRQKPGQAPVLVIFGINNRPSGVPDRFSGSSSGNTASLTITGAQAEDEADYYCNSRESNSNRILFGGGTKVTVL

Key:
Conditions in all cases: remark: other sources report otherwise
[1] = target: trimeric prefusion S protein of SARS-CoV-2 (SARS-CoV-2), P0DTC2
[2] = target: T1, sCoV2-RBD (Fc-tagged RBD of SARS-CoV-2 S protein) (SARS-CoV-2; human), P0DTC2
[3] = target: T1, sCoV2-RBD (Fc-tagged RBD of SARS-CoV-2 …); test: ELISA titration on coated sCoV2-RBD
[4] = target: T1, sCoV2-RBD (Fc-tagged RBD of SARS-CoV-2 …); test: BLI (Octet) blocking of ACE2 binding to captured sCoV2-RBD

Binder | Kd [1] [nM] | EC50 [2] [nM] | EC50 [3] [nM] | IC50 [4] [µg/mL]
B1 | 5.35 | 7.77 | 7.77 | 6.9
B2 | 0.94 | – | – | 3.54
